Publication PMC4207802

Assays:
[1] = biological target: T1 – FSHR-HinR/TSHR (human) (UniProt P16473)
[2] = biological target: T4 – TSHR-LRR10/FSHR (human) (UniProt P16473)
[3] = biological target: T3 – TSHR-LRR11/FSHR (human) (UniProt P16473)

- EC50 of intracellular cAMP accumulation in transfected COS-7 cells, rhTSH dose-response [1]: 0.4 mU/ml
- intracellular cAMP accumulation in transfected COS-7 cells, rhTSH 0–100 mU/ml; value at 100 mU/ml [1]: 57.2 nM
- EC50 of intracellular cAMP accumulation in transfected COS-7 cells, rhTSH dose-response [2]: 11.6 mU/ml
- intracellular cAMP accumulation in transfected COS-7 cells, rhTSH 0–100 mU/ml; value at 100 mU/ml [2]: 36.6 nM
- EC50 of intracellular cAMP accumulation in transfected COS-7 cells, rhTSH dose-response [3]: 3.8 mU/ml
- intracellular cAMP accumulation in transfected COS-7 cells, rhTSH 0–100 mU/ml; value at 100 mU/ml [3]: 32.9 nM
Substance: recombinant human thyrotropin (rhTSH) (from UniProt P01215 25-116; P01222 21-132) (ligand)
